According to patent US20200399314A1 (MEDIKINE, published 2020):
Bridge positions count the residues as written; N and C are the ends. Ends that are not written are not given here.

Biological target: T1, human IL-2Rα subunit (human, UniProt P01589 22-213, limits assumed)
T1 construct: also called CD25
T1 sequence (looked up): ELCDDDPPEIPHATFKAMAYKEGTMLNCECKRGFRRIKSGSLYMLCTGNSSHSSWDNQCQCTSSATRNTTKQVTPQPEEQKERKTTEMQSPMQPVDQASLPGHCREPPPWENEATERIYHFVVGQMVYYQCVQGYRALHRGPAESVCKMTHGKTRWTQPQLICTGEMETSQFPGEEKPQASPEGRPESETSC

Q: With SHGVCCTQSSCRSCR [SEQ ID NO 280] as the binder, how does the IC50 read?
A: < 100 µM

Q: WVACNRVTGSCRPI [SEQ ID NO 279] was tested. Which IC50 did it give?
A: < 100 µM

Q: For WVICSALGCRSM [SEQ ID NO 30], which IC50 is on record?
A: < 100 µM

Q: How did the IC50 turn out when WVICSALGCRSL [SEQ ID NO 29] was run?
A: < 100 µM

Q: With WVICSAFGCRSM [SEQ ID NO 34] as the binder, how does the IC50 read?
A: < 100 µM

Q: With WVICSAMGCRSI [SEQ ID NO 32] as the binder, how does the IC50 read?
A: < 100 µM

Q: Which IC50 does the source give for WVICSALGCRSI [SEQ ID NO 33] here?
A: < 100 µM

Q: How did the IC50 turn out when CVVCSALGCRACVPR [SEQ ID NO 269] was run?
A: < 100 µM

Q: With RGVICNHAGCRIWYG [SEQ ID NO 274] as the binder, how does the IC50 read?
A: < 100 µM

Q: With RHACKTWYRMCIVS [SEQ ID NO 277] as the binder, how does the IC50 read?
A: < 100 µM

Q: With VWDCFVRGWEAGVAAVGE [SEQ ID NO 270] as the binder, how does the IC50 read?
A: < 100 µM

Q: With CILNDTIQGWVCIY [SEQ ID NO 259] as the binder, how does the IC50 read?
A: < 100 µM

Q: Which IC50 does the source give for TTQSCTLRYCWLLQ (disulfide 5-10 (inferred)) [SEQ ID NO 275] here?
A: < 100 µM

Q: Which IC50 does the source give for RYCSPLIPGSALGCPR [SEQ ID NO 272] here?
A: < 100 µM

Q: How did the IC50 turn out when VCCHQTFGCYRCKQ [SEQ ID NO 268] was run?
A: < 100 µM

Q: RVCCTSDGCRGCRQ [SEQ ID NO 266] was tested. Which IC50 did it give?
A: < 100 µM

Q: With CLVFDQYGNYKRRC [SEQ ID NO 261] as the binder, how does the IC50 read?
A: < 100 µM

Q: IRCRLDPPGSYKTCVF (disulfide 3-14 (inferred)) [SEQ ID NO 273] was tested. Which IC50 did it give?
A: < 100 µM

Q: With CTLYRSAPGVWLCIF [SEQ ID NO 260] as the binder, how does the IC50 read?
A: < 100 µM

Q: Which IC50 does the source give for RVCCTFAGCRVCHK [SEQ ID NO 265] here?
A: < 100 µM

Q: WVACNRLSGCCRPI [SEQ ID NO 281] was tested. Which IC50 did it give?
A: < 100 µM

Q: For CRMMQGTYGWTCLF (disulfide 1-12 (inferred)) [SEQ ID NO 258], which IC50 is on record?
A: < 100 µM

Q: How did the IC50 turn out when WWISCLRDLRCLEYF [SEQ ID NO 276] was run?
A: < 100 µM

Q: For IVCCNMFGCHTCRN [SEQ ID NO 262], which IC50 is on record?
A: < 100 µM

Q: For TVCCTVQGCWPCSR [SEQ ID NO 267], which IC50 is on record?
A: < 100 µM

Q: Which IC50 does the source give for LTCLIFKPGTHRHCPV [SEQ ID NO 271] here?
A: < 100 µM

Q: How did the IC50 turn out when RVCCSMVGCRSCNL [SEQ ID NO 264] was run?
A: < 100 µM

Q: For QVCCTSRGCRVCAPV [SEQ ID NO 263], which IC50 is on record?
A: < 100 µM

Q: For AVSCSRLTGRCHSL [SEQ ID NO 278], which IC50 is on record?
A: < 100 µM
